Patent US20130280807A1, “CELL CULTURE CHAMBER, METHOD FOR PRODUCING SAME, TISSUE MODEL USING CELL CULTURE CHAMBER, AND METHOD FOR PRODUCING SAME” (priority 2010, published 2013)

Test system: PC-12 cells
Assay: Neurite extension of PC-12 cells by the effect of NGF through membrane
Type: cell-based
Conditions: 2 days
Procedure: The vitrigel chamber was hung and held in the container (FIGS. 5, (A) and (B)), and PC-12 cells suspended in a culture medium [Dulbecco's modified Eagle's culture medium (GIBCO BRL #11885-084) containing 10% inactivated fetal bovine serum (Sigma #F2442), 20 mM HEPES (GIBCO BRL #15630), 100 units/ml penicillin, and 100 μg/ml streptomycin] were seeded in 2.5×10^3 cells/cm^2 in the vitrigel chamber. A culture medium (1.2 ml), either containing NGF (upstate #01-125; 5 ng/ml) or by itself, was also injected into the container (FIG. 13).
The same experiment was conducted with the commercially available collagen membrane chamber (Koken; permeable collagen membrane #CM-24 for cell culture).

B1: NGF: NGF (upstate #01-125; 5 ng/ml) added to culture medium, acting on PC-12 cells (protein, UniProt P01139 122-241, looked up)
Beta-nerve growth factor: SSTHPVFHMGEFSVCDSVSVWVGDKTTATDIKGKEVTVLAEVNINNSVFRQYFFETKCRASNPVESGCRGIDSKHWNSYCTTTHTFVKALTTDEKQAAWRFIRIDTACVCVLSRKATRRG
modifications: Beta-nerve growth factor
notes: NGF (upstate #01-125; 5 ng/ml) added to culture medium, acting on PC-12 cells
Commercially available collagen membrane chamber (Koken #CM-24), NGF in container
  neurite extension of PC-12 cells (cell morphology, phase-contrast microscope): neurite extension was not confirmed
Vitrigel chamber, NGF 5 ng/ml in culture medium in container, acting through vitrigel membrane
  neurite extension of PC-12 cells (cell morphology, phase-contrast microscope): neurite extension was confirmed
